In patent US20190169289A1:

Tests used:
[1] = target: anti-GCN4 (52SR4 scFv) sCAR with CD8 hinge; test: flow cytometry of CD8 sCAR T cells; filled histogram with a second peak at about 10^4 against a dashed control histogram; the legend names an AF647 conjugate, the axis prints APC
CART19 = test: flow cytometry of CART19 T cells; filled histogram with a second population at about 10^3-10^4 against a dashed control histogram; the legend names an AF647 conjugate, the axis prints APC
[2] = target: HLA molecules on T2 cells loaded with the NY-ESO-1 peptide; test: cell-based or functional assay

Chain of anti-GCN4 (52SR4 scFv) sCAR with CD8 hinge (chain, as listed by the source limits assumed): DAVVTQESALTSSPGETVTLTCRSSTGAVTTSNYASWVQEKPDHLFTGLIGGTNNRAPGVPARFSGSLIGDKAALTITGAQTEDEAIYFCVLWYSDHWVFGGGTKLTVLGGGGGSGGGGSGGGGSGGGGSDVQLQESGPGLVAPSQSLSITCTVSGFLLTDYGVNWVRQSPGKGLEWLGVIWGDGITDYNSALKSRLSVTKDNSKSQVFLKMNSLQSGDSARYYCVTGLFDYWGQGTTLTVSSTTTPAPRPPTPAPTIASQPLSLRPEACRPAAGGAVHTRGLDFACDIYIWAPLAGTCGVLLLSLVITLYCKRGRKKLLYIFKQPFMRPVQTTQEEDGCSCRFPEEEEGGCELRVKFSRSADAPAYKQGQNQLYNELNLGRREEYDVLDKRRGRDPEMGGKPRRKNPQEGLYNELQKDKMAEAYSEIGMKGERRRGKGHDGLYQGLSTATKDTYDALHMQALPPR
Chain of CART19 (chimeric antigen receptor, as listed by the source limits assumed): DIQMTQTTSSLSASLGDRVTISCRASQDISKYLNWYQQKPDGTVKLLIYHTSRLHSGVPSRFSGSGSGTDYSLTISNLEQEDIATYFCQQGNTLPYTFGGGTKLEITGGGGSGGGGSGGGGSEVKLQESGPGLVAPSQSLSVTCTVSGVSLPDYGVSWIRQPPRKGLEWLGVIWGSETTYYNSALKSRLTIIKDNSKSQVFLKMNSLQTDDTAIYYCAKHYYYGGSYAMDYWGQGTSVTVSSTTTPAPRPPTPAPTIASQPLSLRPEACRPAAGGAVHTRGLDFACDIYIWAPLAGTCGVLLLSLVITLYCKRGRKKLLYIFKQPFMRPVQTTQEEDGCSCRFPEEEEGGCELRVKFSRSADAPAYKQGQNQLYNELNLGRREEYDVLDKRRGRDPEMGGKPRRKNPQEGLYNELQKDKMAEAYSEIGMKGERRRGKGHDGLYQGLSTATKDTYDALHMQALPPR

Row | number beside the gate bar of the histogram (share of cells in the positive gate; name not given) [1] | number beside the gate bar of the histogram (share of cells in the positive gate; name not given) (CART19) | sTCR switch concentration at which IFNg, IL-2 and TNFa are produced [2] [pM] | sTCR switch concentration at which T cells express CD25 and CD69 [2] [pM] | Substance
1 | 69.3 | 53.3 |  |  | APC-conjugated goat-anti mouse IgG (H&L) polyclonal antibody
2 |  |  | > 10 | > 1 | NY-ESO-1 specific soluble TCR 1G4c113 with C-terminal GCN4 peptide and 6x HIS tag on the beta chain
